According to US7553630:

Experiments:
[1] = system: peptide 3 (13.5 kDa) from plasmin digestion of CHO-derived human MI
[2] = system: peptide 1 (19 kDa) from plasmin digestion of CHO-derived human MI
[3] = target: type I collagenase in activated conditioned medium from TPA-treated rabbit synovial fibroblasts (rabbit) (UniProt P13943); assay: cell-based or functional assay
[4] = target: E. coli-derived recombinant human metalloproteinase inhibitor (MI)
[5] = target: CHO cell-derived recombinant human metalloproteinase inhibitor (MI)

Chain of peptide 3 (13.5 kDa) from plasmin digestion of CHO-derived human MI (chain, as listed by the source): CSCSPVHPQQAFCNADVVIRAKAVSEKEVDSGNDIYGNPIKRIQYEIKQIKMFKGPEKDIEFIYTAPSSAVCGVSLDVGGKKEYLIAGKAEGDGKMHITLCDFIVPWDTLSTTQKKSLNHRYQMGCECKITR

## gelatinase(s) in activated conditioned medium from TPA-treated rabbit synovial fibroblasts
[1]
  SDS-gelatin PAGE of a plasmin digest of MI: These peptides retained their anticollagenase activity as shown by the SDS-gelatin PAGE
[2]
  SDS-gelatin PAGE of a plasmin digest of MI: These peptides retained their anticollagenase activity as shown by the SDS-gelatin PAGE

## bovine peak II-derived metalloproteinase inhibitor (from UniProt P20414 24-207)
[3]
  Specific activity (units/mg), radiolabeled collagen film collagenase inhibition assay: 1780 units/mg

B1: type I collagenase in activated conditioned medium from TPA-treated rabbit synovial fibroblasts (protein)
chain: FVLTPGNPRWEQTHLTYRIENYTPDLSRADVDNAIEKAFQLWSNVTPLTFTKVSKGQADIMISFVRGDHRDNSPFDGPEGQLAHAFQPGLGIGGDVHFDEDDRWTKDFRNYNLYRVAAHELGHSLGLSHSTDIGALMYPNYMFSGDVQLAQDDIDGIQAIYGPSQNPSQPVGPQTPKVCDSKLTFDAITTIRGEIMFFKDRFYMRANPYYSEVELNFISVFWPHLPNGLQAAYEVAHRDEILFFKGNKYWTVQGQNELPGYPKDIHSSFGFPRSVNHIDAAVSEEDTGKTYFFVANKYWRYDEYKRSMDAGYPKMIEYDFPGIGNKVDAVFKKDGFFYFFHGTRQYKFDPKTKRILTLQKANSWFNCRKN
[4]
  SDS-PAGE and autoradiography of specific collagen cleavage; MI at about 2 µg/ml: also inhibited the specific collagen cleavage characteristic of mammalian collagenases

B2: rabbit fibroblast interstitial collagenase (42-kDa activated enzyme, APMA-activated) (protein)
chain: B1 chain
[5]
  SDS-PAGE and autoradiography of 14C type I collagen cleavage products; 4.6 pmol MI, 2.1 pmol collagenase: The initial cleavage of the collagen as well as its further degradation were completely blocked by recombinant human MI.

B3: plasmin-treated rabbit fibroblast interstitial procollagenase (46-kDa intermediate) (protein)
chain: GNGLAVEKLKQMQEFFGLKVTGKPDAETLKMMKQPRCGVPDVAQFVLTPGNPRWEQTHLTYRIENYTPDLSRADVDNAIEKAFQLWSNVTPLTFTKVSKGQADIMISFVRGDHRDNSPFDGPEGQLAHAFQPGLGIGGDVHFDEDDRWTKDFRNYNLYRVAAHELGHSLGLSHSTDIGALMYPNYMFSGDVQLAQDDIDGIQAIYGPSQNPSQPVGPQTPKVCDSKLTFDAITTIRGEIMFFKDRFYMRANPYYSEVELNFISVFWPHLPNGLQAAYEVAHRDEILFFKGNKYWTVQGQNELPGYPKDIHSSFGFPRSVNHIDAAVSEEDTGKTYFFVANKYWRYDEYKRSMDAGYPKMIEYDFPGIGNKVDAVFKKDGFFYFFHGTRQYKFDPKTKRILTLQKANSWFNCRKN
[5]
  conversion of the 46-kDa intermediate to the 42-kDa active enzyme at 37° C. (SDS-PAGE); 27 pmol MI, 16 pmol procollagenase: the conversion of the 46-kDa intermediate to the 42-kDa active enzyme which should have occurred at 37 °C was completely blocked by MI

B4: human plasmin (protein)
chain: KVYLSECKTGNGKNYRGTMSKTKNGITCQKWSSTSPHRPRFSPATHPSEGLEENYCRNPDNDPQGPWCYTTDPEKRYDYCDILECEEECMHCSGENYDGKISKTMSGLECQAWDSQSPHAHGYIPSKFPNKNLKKNYCRNPDRELRPWCFTTDPNKRWELCDIPRCTTPPPSSGPTYQCLKGTGENYRGNVAVTVSGHTCQHWSAQTPHTHNRTPENFPCKNLDENYCRNPDGKRAPWCHTTNSQVRWEYCKIPSCDSSPVSTEQLAPTAPPELTPVVQDCYHGDGQSYRGTSSTTTTGKKCQSWSSMTPHRHQKTPENYPNAGLTMNYCRNPDADKGPWCFTTDPSVRWEYCNLKKCSGTEASVVAPPPVVLLPDVETPSEEDCMFGNGKGYRGKRATTVTGTPCQDWAAQEPHRHSIFTPETNPRAGLEKNYCRNPDGDVGGPWCYTTNPRKLYDYCDVPQCAAPSFDCGKPQVEPKKCPGRVVGGCVAHPHSWPWQVSLRTRFGMHFCGGTLISPEWVLTAAHCLEKSPRPSSYKVILGAHQEVNLEPHVQEIEVSRLFLEPTRKDIALLKLSSPAVITDKVIPACLPSPNYVVADRTECFITGWGETQGTFGAGLLKEAQLPVIENKVCNRYEFLNGRVQSTELCAGHLAGGTDSCQGDSGGPLVCFEKDKYILQGVTSWGLGCARPNKPGVYVRVSRFVTWIEGVMRNN
[5]
  plasmin conversion of the 52-kDa proenzyme to the 46-kDa intermediate (SDS-PAGE): The addition of MI had no effect on the conversion of the 52-kDa proenzyme to the 46-kDa intermediate (lane 4)
